# Measured values reported in patent US20040142862A1, “Methods and compositions for modulating agonist-induced downregulation of G protein-coupled receptors” (The Regents of the University of California, priority 2002, published 2004).
# “Also recorded” adds a separate entry of the source.
# T1: cytoplasmic tail of DOR (Mus musculus, UniProt P32300)
# T1 construct: GST; made in house
# T1 sequence (P32300 312-371): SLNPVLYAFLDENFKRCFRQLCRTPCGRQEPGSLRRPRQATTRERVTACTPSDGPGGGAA
# Experiments:
# D MOR [1] = experiment: Membrane adenylyl cyclase assay, D MOR cells; assay type: cell-based
# Description: (§1) 21. Membrane adenylyl cyclase assays were performed as previously described (9).
# MOR [2] = target: T2, MOR (Mus musculus, UniProt P42866); experiment: Colocalization of MOR with LAMP1 and LAMP2; assay type: cell-based; details: 5 μM, 90 min
# MOR [3] = target: T2, MOR; experiment: Membrane adenylyl cyclase assay, MOR cells; assay type: cell-based
# Description: as §1
# D MOR [4] = experiment: Agonist-induced downregulation of D MOR, radioligand binding; assay type: cell-based; details: 10 μM, 3 hours
# Description: (§2) Agonist-induced downregulation can be determined by any of a variety of methods, including those described herein. For example, cell surface receptors can be measured and/or receptor proteolysis or localization in lysozomes can be determined. Alternatively, receptor downregulation can be determined indirectly by measuring desensitization of receptors after activation with an agonist. Desensitization can be determined, for example, by measuring a biological effect that is mediated by the receptor. (See FIG. 1 for examples of each of these methods.) Generally, it will be most convenient to measure cell surface receptors using a radio- or immunoassay. An exemplary radioligand binding assay useful for determining agonist-induced downregulation is described in Example 1. (See FIG. 1A and Reference 16.) Briefly, cells expressing the cell surface receptor of interest are incubated with a suitable agonist under conditions designed to provide a saturating concentration of agonist over the incubation period. After agonist treatment, the cells are recovered and assayed for radioligand binding. […]
# (§3) (See 18 and 45 for the DOR and MOR expression constructs, respectively.) Cells were then chilled on ice, washed extensively and total opioid radioligand binding sites were determined for each cell line (16). […]
# MOR [5] = target: T2, MOR; experiment: Agonist-induced downregulation of MOR, radioligand binding; assay type: cell-based; details: 10 μM, 3 hours
# Description: as §2, §3
# [6] = target: epitope (FLAG)-tagged delta opioid receptor (DOR-1), full length, stably expressed in HEK293 cells (UniProt P32300); experiment: co-immunoprecipitation: receptor immunoprecipitated, blotted for GASP1
# DOR [7] = target: T3, DOR (Mus musculus, UniProt P32300); experiment: Biotin protection-degradation assay, endocytosed DOR; assay type: cell-based; details: cells overexpressing cGASP1 vs DOR alone, agonist 3 hours
# T3 construct: co-immunoprecipitated specifically with full length DOR but not with MOR expressed at similar levels; expressed in transfected cells
# Description: (§4) 17. Biotin protection-degradation assay for proteolysis of surface-biotinylated receptors following endocytosis: Cells were grown to 80% confluency washed 2 times with cold phosphate buffered saline (PBS) then incubated in 3 μg/ml cleavable biotin (Pierce) in PBS at 4° C. for 30 minutes with gentle agitation. Cells were washed 2 times with Tris buffered saline and placed back into medium for treatment. Cells labeled “100% biotinylated” were left on ice in PBS. Cells labeled “100% stripped” were also left on ice in PBS then stripped as described below. Cells were treated with 5 μM agonist for 30 minutes or 3 hours, washed 2 times with cold PBS and the remaining cell surface biotinylated receptors were stripped in 50 mM glutathione, 0.3 M NaCl, 75 mM NaOH, 1% fetal bovine serum at 4° C. for 30 minutes. Glutathione was quenched with a 20 minute wash of PBS with 50 mM iodoacetamide, 1% bovine serum albumin. Cells were extracted in 0.1% Triton X-100, 150 mM NaCl, 25 mM KCl, 10 mM Tris-HCl pH 7.4 containing 1 μM leupeptin, 1 μM pepstatin A, 1 μM aprotinin, 2.5 μM Pefabloc SC, and cell debris was removed by centrifugation at 10,000×g for 10 minutes at 4° C. Receptors were immunoprecipitated using M2 antibody (Sigma), rabbit anti mouse linker (Jackson Immunoresearch) and protein A sepharose (Pharmacia) overnight. […]
# [8] = target: epidermal growth factor (EGF) receptor (Homo sapiens, UniProt P00533); experiment: EGFR assay, ligand-induced downregulation of EGF receptor; assay type: cell-based; details: EGF 30 minutes or 3 hours
# Description: 32. EGFR assay: Cells expressing only endogenous GASP1 and cells overexpressing GFP-cGASP1 (>40×) were grown to 80% confluency and treated with 5 μM EGF in DMEM for the indicated times or left untreated. Cells were washed with PBS, EGF receptor was immunoprecipitated with Rabbit anti EGFR-affinity resin (Santa Cruz Biotechnology), separated by SDS page and immunoblotted with goat anti-EGFR antibodies (Santa Cruz Biotechnology), followed by HRP-conjugated anti-goat secondary (Jackson Immunoresearch) and development with ECL reagents (Amersham).
# [9] = target: T4, endogenous GASP1 binding to DOR (Mus musculus, UniProt P32300); experiment: Competition with endogenous GASP1 for DOR binding in cells (co-immunoprecipitation); assay type: cell-based; details: overexpressed approximately 40 fold over endogenous GASP1
# T4 construct: co-immunoprecipitated specifically with full length DOR but not with MOR expressed at similar levels; expressed in transfected cells; host or cells: HEK293 stably expressing DOR (GASP1 endogenous)
# Description: 30. Assay for coimmunoprecipitation of cGASP1 with opioid receptors: Cells were grown to confluency, washed 2 times with PBS and lysed in 0.1% Triton X-100, 150 mM NaCl, 25 mM KCl, 10 mM Tris-HCl pH 7.4 containing 1 μM leupeptin, 1 μM pepstatin A, 1 μM aprotinin, 2.5 μM Pefabloc SC, and cell debris was removed by centrifugation at 10,000×g for 10 minutes at 4° C. An aliquot of lysate was removed for GASP1 control blot. Lysate was incubated with M2 affinity resin (Sigma) overnight. Pellets were extensively washed and incubated with PNGase (NEB) for 2 hours at 37° C. to degycosylate receptor protein. Samples were eluted in SDS sample buffer. For co-immunoprecipitation with endogenous GASP1, one fourth of eluate was separated by SDS-PAGE on a 12% gel (receptor blot), three quarters on a 7% gel (GASP1 blot). For co-immunoprecipitation with cGASP1 eluate was run on a 12% gel that was later cut and blotted separately for cGASP1 and receptor. Proteins were transferred to nitrocellulose. GASP1 blots were incubated for 2 hours with rabbit anti-GASP1 (1:4000). cGASP1 blots were incubated with rabbit anti-GFP antibodies for 2 hours (1:200) (Clonetech). Both were followed by 1 hour with horseradish peroxidase (HRP)-conjugated anti-rabbit antibody (NEB) (1:3000), and visualized with ECL plus (Amersham). […]
# B2AR-Ala [10] = target: T5, B2AR-Ala (Homo sapiens, UniProt P07550); experiment: Co-immunoprecipitation with B2AR-Ala; assay type: binding; details: cells stably expressing B2AR-Ala and GFP-cGASP1
# T5 construct: expressed in transfected cells
# Description: The ability of GASP1 to bind to the B2AR tail in vitro was initially surprising, since the B2AR recycles efficiently after agonist-induced endocytosis and is relatively resistant to proteolysis in HEK293 cells (35). It has been shown previously that efficient recycling of the B2AR in these cells requires the actin cytoskeleton and a distinct set of protein interactions with the distal tip of the cytoplasmic tail (7). Adding a single alanine residue to the carboxyl terminus of the B2AR specifically disrupts this “recycling protein” interaction, creating a mutant B2AR (B2AR-Ala) that is sorted to lysosomes after agonist-induced endocytosis (7) (and see this study FIG. 5C) much like DOR (FIG. 1B). […] Consistent with this, GFP-cGASP1 co-immunoprecipited with B2AR-Ala (FIG. 5B) (30). Furthermore, overexpression of GFP-cGASP1 inhibited degradation of internalized B2AR-Ala (FIG. 5C), providing evidence for a functional role of the GASP1 protein interaction in lysosomal sorting of a non-opioid GPCR.
# 30. Assay for coimmunoprecipitation of cGASP1 with opioid receptors: Cells were grown to confluency, washed 2 times with PBS and lysed in 0.1% Triton X-100, 150 mM NaCl, 25 mM KCl, 10 mM Tris-HCl pH 7.4 containing 1 μM leupeptin, 1 μM pepstatin A, 1 μM aprotinin, 2.5 μM Pefabloc SC, and cell debris was removed by centrifugation at 10,000×g for 10 minutes at 4° C. […]
# DOR [11] = target: T3, DOR; experiment: Agonist-induced downregulation of DOR, radioligand binding; assay type: cell-based; details: 5 μM DADLE 3 hours
# cytoplasmic tail of DOR = target: T1, cytoplasmic tail of DOR; experiment: GST affinity chromatography, binding to DOR cytoplasmic tail; details: in vitro
# Description: Sequence homology to a non-mammalian protein was observed between the carboxyl-terminal regions of GASP1 and Vac8p, a yeast protein involved in late endocytic trafficking (26).
# 24. Affinity chromatography was carried out as previously described (25).
# B2AR-Ala [12] = target: T5, B2AR-Ala; experiment: Biotin protection-degradation assay, endocytosed B2AR-Ala; assay type: cell-based; details: cells overexpressing cGASP1 vs B2AR-Ala alone, isoproterenol
# Description: as §4
# [13] = agonist 3 hours, washout, 10 μM naloxone 30 minutes
molecule,measurement,setting,value
C[C@@H](NC(=O)[C@@H](N)Cc1ccc(O)cc1)C(=O)NCC(=O)N(C)[C@@H](Cc1ccccc1)C(=O)NCCO [DAMGO],desensitization of D MOR,"D MOR [1]; 5 μM, 10 minute exposure",Rapid desensitization
same,resensitization of D MOR,D MOR [1]; [13],neither DOR nor D MOR resensitized significantly
same,colocalization of MOR with LAMP after agonist,MOR [2],not colocalized with LAMP
same,desensitization of MOR,"MOR [3]; 5 μM, 10 minute exposure",Rapid desensitization
same,resensitization of MOR,MOR [3]; [13],recovered their ability to mediate agonist-dependent inhibition of adenylyl cyclase
"CC(C)C[C@@H](NC(=O)[C@H](Cc1ccccc1)NC(=O)CNC(=O)[C@@H](C)NC(=O)[C@@H](N)Cc1ccc(O)cc1)C(=O)O [DADLE, Tyr-D-Ala-Gly-Phe-D-Leu]",agonist-induced downregulation of D MOR (total opioid radioligand binding sites),D MOR [4],significant downregulation
same,agonist-induced downregulation of MOR (total opioid radioligand binding sites),MOR [5],not substantially downregulated
endogenous GASP1 of HEK293 cells,percent of endogenous GASP1 immunoprecipitated with DOR,[6],< 1%
same,percent of total endogenous GASP1 coimmunoprecipitated with DOR,[6],< 1%
"GFP-cGASP1: GFP-tagged version of cGASP1 stably overexpressed in HEK293 cells (protein, left off: large carriers; small tags and cut ends, GFP-tagged version of cGASP1 stably overexpressed in HEK293 cells) SETEEETIFGSWFWDGKEVSEEAGPCCVSKPEDDEEMIVESWFWSRDKAIKETGTVATCESKPENEEGAIVGSWFEAEDEVDNRTDNGSNCGSRTLADEDEAIVGSWFWAGDEAHFESNPSPVFRAICRSTCSVEQEPDPSRRPQSWEEVTVQFKPGPWGRVGFPSISPFRFPKEAASLFCEMFGGKPRNMVLSPEGEDQESLLQPDQPSPEFPFQYDPSYRSVQEIREHLRAKESTEPESSSCNCIQCELKIGSEEFEELLLLMEKIRDPFIHEISKIAMGMRSASQFTRDFIRDSGVVSLIETLLNYPSSRVRTSFLENMIRMAPPYPNLNIIQTYICKVCEETLAYSVDSPEQLSGIRMIRHLTTTTDYHTLVANYMSGFLSLLATGNAKTRFHVLKMLLNLSENLFMTKELLSAEAVSEFIGLFNREETNDNIQIVLAIFENIGNNIKKETVFSDDDFNIEPLISAFHKVEKFAKELQGKTDNQNDPEGDQEN",stability of endocytosed DOR (post-endocytic proteolysis),DOR [7],significantly more stable
same,effect on downregulation of the EGF receptor,[8],unaffected
same,competition with endogenous GASP1 for binding to DOR in vivo,[9],substantially reduced the amount of endogenous GASP1 recovered in DOR immunoprecipitates; also recorded: competes with endogenous GASP1 for binding to DOR in vivo
same,binding to B2AR-Ala in vivo (co-immunoprecipitation),B2AR-Ala [10],binds in vivo
"cGASP1: carboxyl-terminal fragment of the GASP1 protein, corresponding to the C-terminal 497 residues of GASP1 (protein) SETEEETIFGSWFWDGKEVSEEAGPCCVSKPEDDEEMIVESWFWSRDKAIKETGTVATCESKPENEEGAIVGSWFEAEDEVDNRTDNGSNCGSRTLADEDEAIVGSWFWAGDEAHFESNPSPVFRAICRSTCSVEQEPDPSRRPQSWEEVTVQFKPGPWGRVGFPSISPFRFPKEAASLFCEMFGGKPRNMVLSPEGEDQESLLQPDQPSPEFPFQYDPSYRSVQEIREHLRAKESTEPESSSCNCIQCELKIGSEEFEELLLLMEKIRDPFIHEISKIAMGMRSASQFTRDFIRDSGVVSLIETLLNYPSSRVRTSFLENMIRMAPPYPNLNIIQTYICKVCEETLAYSVDSPEQLSGIRMIRHLTTTTDYHTLVANYMSGFLSLLATGNAKTRFHVLKMLLNLSENLFMTKELLSAEAVSEFIGLFNREETNDNIQIVLAIFENIGNNIKKETVFSDDDFNIEPLISAFHKVEKFAKELQGKTDNQNDPEGDQEN",effect on agonist-induced downregulation of DOR,DOR [11]; cGASP1 overexpressed 30 fold over endogenous GASP1,less significantly
same,effect on agonist-induced downregulation of DOR,DOR [11]; cGASP1 overexpressed 40-fold over endogenous GASP1,significantly inhibited
same,input recovered on washed GST-DOR,cytoplasmic tail of DOR,3-5%
same,stability of endocytosed B2AR-Ala (post-endocytic proteolysis),B2AR-Ala [12],significantly more stable
